# Measurements: the supplement of paper PMC9170038
# Test system: MS2 coat protein
# Assay: apparent KD of MS2 coat protein; higher = weaker reporter binding
# Settings: Eterna round: R107
# Procedure: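 RNA-MaP round R107: designed RNA switches with theophylline, tryptophan, arginine or FMN aptamers are transcribed on-chip within common flanks. They are titrated with SNAP-549-labelled MS2 coat protein in RNA-MaP buffer (100 mM Tris pH 7.5, 80 mM KCl, 4 mM MgCl2), without ligand or with the indicated ligand. Median apparent KD per design.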
# [1] = input ligand: theophylline 20 uM
# [2] = input ligand: tryptophan 2.4 mM
# [3] = input ligand: theophylline 2 mM
Sequence,apparent KD of MS2 coat protein (input ligand: arginine 13.2 mM),apparent KD of MS2 coat protein [1],apparent KD of MS2 coat protein [2],apparent KD of MS2 coat protein (input ligand: none),apparent KD of MS2 coat protein [3]
UUGUACGAAACUGAUACCAGCCAGCAAUGCCACCAAGAGCACAUGAGGAUCACCCAUGUUGGCCCUUGGCAGCAGGACAAUAAGC [theeternabot_exclusion_MS2_Theo_B_3],7.44 nM,10.6 nM,8.91 nM,,
UGUCCUCAUGCGGCCGCCACUGUCGGCCGCCACUAAACAUGAGGAUCACCCAUGUAGGACCGGGACAGGACCGGGCAUGGGUGCU [TryBS - #DoubleAptamer],132 nM,232 nM,319 nM,102 nM,244 nM
UAAUCCGGUCCUCGAUAGGUGAUCCUCUAACGAGGACCGGUACGGCCGCCACUCGAUAACAUGAGGAUCACCCAUGUAAUAAUAA [|T'-M'-Trp-Ms2|_Design16],33 nM,41.9 nM,,,45.1 nM
GACAUUAACUGAAGGAGCGAGGUAGAACGGGAUGAGCAUACAUGAGGAUCACCCAUGUGGCCUCAGGUAGGUCGCAGAUGAGAUU [Exclusion Arginine B GF25],83.4 nM,201 nM,179 nM,175 nM,203 nM
AUAUGAUCAUGUGAUACCAGAAAUGGUAUUCCUCGCUGGAUUACAUGAGGAUCACCCAUGUUCCCUUGGCAGCAUAUGAUCAUAU [#01 Exclusion-TheophyllineB],21.3 nM,36.3 nM,20.9 nM,,
GGUAUGUAUUCGGAAACGAAUGCAUACCAACGAGGACCGGUACGGCCGCCACUCGGGCGGCGAUCACAUGAGGAUCACCCAUGUA [Ex Tryptophan A 2],28 nM,45.3 nM,,,56.6 nM
UAUCGUCAGACGGCCGCCACUAGAACAUGAGGAUCACCCAUGUAGGUCCUAGAUUCCUCAAUAACUAGGACCGGGUCUGACGAAU [(Trp1)-(Ms2)-(T)'-(M)'-(Trp2)_Design14],81.8 nM,137 nM,,,224 nM
UGCUGACAAGGACAUGGAUGAUCAGCUGAUACCAGCCUGGAAACAGGCCCUUGGCAGCAGCACAUGAGGAUCACCCAUGUAAUAA [(T)'-(M)'-(T1)-(T2)-(M1)-(M2)_Design3(Mismatches)],28.4 nM,78.1 nM,27.2 nM,,
UGGUACAUGGCGGCCGCCACUUCACGUAAAAUAAAAACGUGAGGAUCACCCACGUAAUAAGUUGGGAGGACCGGGUCAUGUACCU,122 nM,344 nM,123 nM,321 nM,491 nM
UUUUAAAGCAUGGCGUAUCGGAAAACCGAUACCAGUACAGAAAUGUACCCUUGGCAGCGGCAUUUUACAUGAGGAUCACCCAUGU [Ex Theophylline A 2],16 nM,18.4 nM,14.5 nM,,
AGCAUGUUCAGAAGGAGCGUGCAAGGGUACAUUCGUAGGACAUGAGGAUCACCCAUGUAAGCACAGGUAGGUCGCUGGACAUGCU [Arg B SS t5],71.1 nM,82.4 nM,107 nM,98.7 nM,129 nM
AACAUGAGGAUCACCCAUGUCCUCAUGAUUCGAGGACCGGUACGGCCGCCACUCGGUCCUCGCGAGGAGGAGUCAAAGACUCCAA [Omei Trp A SS A v2],360 nM,361 nM,,,968 nM
CACGCACGAUCGGCCGCCACUCGUGUAGCUUACAUGAGGAUCACCCAUGUAUGUUCAUUCAUAUAGAGGACCGGGAUCGUGCGUG [#05 Same State - Tryptophan B],9.09 nM,18.5 nM,11.7 nM,12.8 nM,12.1 nM
GUCCUAAGGUCGGCCGCCACUGUAGAGUGUGAGCCAUCACAUGAGGAUCACCCAUGUUGUUGCUAUAGGACCGGGAUUGUAGGAC [#22 Exclusion Tryptophan B],13.5 nM,15.5 nM,,,12.6 nM
UGAUGGUGCUGAAGGAGCGUGUAAGAACAAGAACAUGAGGAUCACCCAUGUAUUAAUUUAACGCAGGUAGGUCGCGGUGUUAUUG [11.M],22.4 nM,30.7 nM,18.6 nM,20.2 nM,22.4 nM
UAUCGACACUGAAGGAGCGAGAUGACAAACAUGAGGAUCACCCAUGUUAUGGGUUGUUAAUCUCAGGUAGGUCGCAGUGGUCGCA [Same State Arginine B GF 18],67.8 nM,130 nM,85.7 nM,93.3 nM,108 nM
